{"source": "patent US20210030857A1", "about": "(NGM BIOPHARMACEUTICALS, published 2021)", "binders": {"B1": {"name": "Control mAb comprising SEQ ID NO: 358 and SEQ ID NO: 360 (antibody, human IgG2, lambda, V domains shown)", "VH": "not shown", "VL": "SYVLTQPPSVSVAPGQTARITCGGNNIGSESVHWYQQKPGQAPVLVVYDDSDRPSGIPERFSGSNSGNTATLTISRVEAGDEADYYCQVWDGNSDHVVFGGGTKLTVLG", "notes": "also called Control antibody"}}, "key": {"[1]": {"biological_target": "cynomolgus beta klotho / human FGFR1c receptor complex on cells (cynomolgus monkey (Macaca …))", "sequence (chain, as listed by the source limits assumed, chain 1 of 2)": "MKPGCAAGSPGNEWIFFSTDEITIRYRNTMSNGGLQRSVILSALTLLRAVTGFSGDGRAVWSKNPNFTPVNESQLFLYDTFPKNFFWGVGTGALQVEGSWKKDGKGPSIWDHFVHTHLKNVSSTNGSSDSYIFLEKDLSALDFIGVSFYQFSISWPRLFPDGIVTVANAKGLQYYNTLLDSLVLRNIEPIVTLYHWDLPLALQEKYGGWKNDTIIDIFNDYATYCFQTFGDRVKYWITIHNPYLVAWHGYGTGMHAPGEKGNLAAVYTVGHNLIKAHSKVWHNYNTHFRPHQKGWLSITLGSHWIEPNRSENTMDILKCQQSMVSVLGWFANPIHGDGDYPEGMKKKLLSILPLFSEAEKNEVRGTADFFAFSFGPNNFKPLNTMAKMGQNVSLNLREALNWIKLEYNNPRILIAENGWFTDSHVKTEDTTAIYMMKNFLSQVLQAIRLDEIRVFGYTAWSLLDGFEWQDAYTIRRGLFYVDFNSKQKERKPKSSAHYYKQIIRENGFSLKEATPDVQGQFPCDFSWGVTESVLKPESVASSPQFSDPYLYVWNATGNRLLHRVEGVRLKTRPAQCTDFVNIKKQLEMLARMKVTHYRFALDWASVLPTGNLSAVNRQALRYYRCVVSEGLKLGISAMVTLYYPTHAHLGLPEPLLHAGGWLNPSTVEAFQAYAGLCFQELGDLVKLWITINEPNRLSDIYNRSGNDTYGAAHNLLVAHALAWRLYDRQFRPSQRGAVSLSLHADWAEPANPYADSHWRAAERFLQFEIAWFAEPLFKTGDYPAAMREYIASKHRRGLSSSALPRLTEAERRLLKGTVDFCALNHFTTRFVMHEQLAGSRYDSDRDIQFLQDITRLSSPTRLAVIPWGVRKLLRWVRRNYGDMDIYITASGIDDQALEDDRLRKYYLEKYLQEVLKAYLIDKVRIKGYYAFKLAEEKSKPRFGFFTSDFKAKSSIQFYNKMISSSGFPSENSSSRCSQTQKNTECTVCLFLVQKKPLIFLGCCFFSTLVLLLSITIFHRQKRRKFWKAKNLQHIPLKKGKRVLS", "sequence (chain, as listed by the source limits assumed, chain 2 of 2)": "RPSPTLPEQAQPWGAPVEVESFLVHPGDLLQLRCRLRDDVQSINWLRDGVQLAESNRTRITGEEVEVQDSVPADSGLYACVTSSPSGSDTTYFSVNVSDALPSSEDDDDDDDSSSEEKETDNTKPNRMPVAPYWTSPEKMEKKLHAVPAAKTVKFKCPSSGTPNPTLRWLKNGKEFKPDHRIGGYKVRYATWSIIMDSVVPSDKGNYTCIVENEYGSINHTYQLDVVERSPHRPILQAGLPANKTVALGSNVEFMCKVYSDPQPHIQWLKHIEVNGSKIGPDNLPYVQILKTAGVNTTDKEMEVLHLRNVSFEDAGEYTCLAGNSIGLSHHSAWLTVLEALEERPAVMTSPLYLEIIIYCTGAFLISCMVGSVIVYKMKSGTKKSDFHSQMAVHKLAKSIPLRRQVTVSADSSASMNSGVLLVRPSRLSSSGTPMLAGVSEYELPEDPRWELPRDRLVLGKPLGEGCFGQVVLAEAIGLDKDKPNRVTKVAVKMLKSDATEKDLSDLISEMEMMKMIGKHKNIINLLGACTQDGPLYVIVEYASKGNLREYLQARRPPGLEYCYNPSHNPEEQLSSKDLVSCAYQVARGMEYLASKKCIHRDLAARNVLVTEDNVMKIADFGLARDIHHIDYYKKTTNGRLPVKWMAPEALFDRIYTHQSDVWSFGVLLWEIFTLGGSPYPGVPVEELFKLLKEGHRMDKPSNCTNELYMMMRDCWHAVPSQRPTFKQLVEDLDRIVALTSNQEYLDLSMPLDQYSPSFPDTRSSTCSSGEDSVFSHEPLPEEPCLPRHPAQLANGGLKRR", "assay": "cell-based or functional assay"}, "[2]": {"biological_target": "T1, mouse-human KLB chimeric protein (mouse KLB (M1-F506)-human KLB (S509-S1044)) on cells (mouse/human chimera, UniProt Q86Z14 1-1044 (human entry))", "T1 construct": "also called Mouse-Human chimeric KLB; chMoHu", "assay": "FACS on transfected Expi293 cells", "method": "(§1) Studies were performed in order to localize the binding site on human KLB of anti-beta klotho antibodies in the 5H23 epitope bin, including 5H23 as described in Example 3, with sequences shown in Tables 1-10 and FIGS. 1-3, and human anti-beta klotho antibodies in the 5H23 epitope bin, such as humanized 5H23 antibodies (e.g., VH SEQ ID NO: 271 and VL SEQ ID NO: 276). For example, FACS-based binding assays for domain mapping were performed on Expi293 cells (Life Technologies, A14635) that were transiently transfected with plasmids encoding variants of KLB: human, mouse, cynomolgus, a chimeric version in which the KL1 domain sequence of mouse KLB (M1-F506) replaces the KL1 domain of human KLB (M1-F508) to create mouse-human KLB (SEQ ID NO: 376), and a second chimera in which the human KL1 sequence (M1-F508) replaces the KL1 domain of mouse KLB (M1-F506) to create human-mouse KLB (SEQ ID NO: 374). Additionally, the expression vector pYD7 harboring no KLB sequence was transfected as a negative control.\n(§2) In some studies, binding of a purified sample of a humanized 5H23 antibody (e.g., VH SEQ ID NO: 271 and VL SEQ ID NO: 276) to KLB variants was determined by FACS analysis. […] After washing with PBS/1% BSA/0.1% azide, transfected cells were then co-incubated with labeled anti-human Fc (Jackson lmmunoresearch) for 30 minutes at 4° C. After washing with PBS/1% BSA/0.1% azide, cells were acquired on flow cytometer (FACS Calibur) and analyzed by cytometric software (FlowJo). To display the resulting data, graphs plotting the number of cells as a function of fluorescence intensity were generated, and the median fluorescence intensity (MFI) was determined for each sample as shown in Table 30."}, "[3]": {"biological_target": "T2, human beta klotho / human FGFR1c receptor complex on cells (human, UniProt Q86Z14 1-1044; P11362 22-822)", "T2 sequence (Q86Z14 whole entry, chain 1 of 2)": "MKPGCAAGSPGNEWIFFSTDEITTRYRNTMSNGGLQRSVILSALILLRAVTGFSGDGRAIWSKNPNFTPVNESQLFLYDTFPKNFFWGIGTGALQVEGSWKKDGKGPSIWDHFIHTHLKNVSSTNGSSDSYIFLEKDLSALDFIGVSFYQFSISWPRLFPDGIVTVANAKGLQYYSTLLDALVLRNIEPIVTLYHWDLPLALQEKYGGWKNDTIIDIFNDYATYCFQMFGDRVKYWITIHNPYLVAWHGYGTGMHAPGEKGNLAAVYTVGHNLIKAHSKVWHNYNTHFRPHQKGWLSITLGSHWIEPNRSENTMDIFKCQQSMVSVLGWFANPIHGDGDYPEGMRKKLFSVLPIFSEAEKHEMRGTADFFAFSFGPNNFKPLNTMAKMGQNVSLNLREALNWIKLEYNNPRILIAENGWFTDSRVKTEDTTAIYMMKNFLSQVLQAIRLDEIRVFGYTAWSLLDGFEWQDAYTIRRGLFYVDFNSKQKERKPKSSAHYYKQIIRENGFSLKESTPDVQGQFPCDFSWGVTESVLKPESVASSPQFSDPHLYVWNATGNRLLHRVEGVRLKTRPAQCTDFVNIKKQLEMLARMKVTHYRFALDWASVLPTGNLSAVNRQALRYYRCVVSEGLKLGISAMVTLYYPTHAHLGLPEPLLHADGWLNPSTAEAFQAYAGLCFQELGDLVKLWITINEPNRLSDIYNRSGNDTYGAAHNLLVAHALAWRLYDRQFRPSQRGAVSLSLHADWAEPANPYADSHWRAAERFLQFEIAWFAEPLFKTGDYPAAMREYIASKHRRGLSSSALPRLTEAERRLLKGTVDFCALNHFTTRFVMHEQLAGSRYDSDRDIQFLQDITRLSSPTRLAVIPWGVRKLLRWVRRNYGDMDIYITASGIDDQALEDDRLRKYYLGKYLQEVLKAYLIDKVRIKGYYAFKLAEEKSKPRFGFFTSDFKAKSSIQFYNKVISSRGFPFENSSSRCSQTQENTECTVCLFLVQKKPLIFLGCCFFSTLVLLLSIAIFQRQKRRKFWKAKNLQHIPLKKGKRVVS", "T2 sequence (P11362 22-822 limits assumed, chain 2 of 2)": "as the sequence (chain, as listed by the source limits assumed, chain 2 of 2) above", "assay": "cell-based or functional assay"}, "[4]": {"biological_target": "T2, human beta klotho / human FGFR1c …", "assay": "cell-based or functional assay", "remark": "listed apart in the source"}, "[5]": {"biological_target": "T3, mouse beta klotho expressed on cells (mouse (Mus musculus), UniProt Q99N32 1-1043)", "T3 construct": "also called Mouse KLB", "T3 sequence": "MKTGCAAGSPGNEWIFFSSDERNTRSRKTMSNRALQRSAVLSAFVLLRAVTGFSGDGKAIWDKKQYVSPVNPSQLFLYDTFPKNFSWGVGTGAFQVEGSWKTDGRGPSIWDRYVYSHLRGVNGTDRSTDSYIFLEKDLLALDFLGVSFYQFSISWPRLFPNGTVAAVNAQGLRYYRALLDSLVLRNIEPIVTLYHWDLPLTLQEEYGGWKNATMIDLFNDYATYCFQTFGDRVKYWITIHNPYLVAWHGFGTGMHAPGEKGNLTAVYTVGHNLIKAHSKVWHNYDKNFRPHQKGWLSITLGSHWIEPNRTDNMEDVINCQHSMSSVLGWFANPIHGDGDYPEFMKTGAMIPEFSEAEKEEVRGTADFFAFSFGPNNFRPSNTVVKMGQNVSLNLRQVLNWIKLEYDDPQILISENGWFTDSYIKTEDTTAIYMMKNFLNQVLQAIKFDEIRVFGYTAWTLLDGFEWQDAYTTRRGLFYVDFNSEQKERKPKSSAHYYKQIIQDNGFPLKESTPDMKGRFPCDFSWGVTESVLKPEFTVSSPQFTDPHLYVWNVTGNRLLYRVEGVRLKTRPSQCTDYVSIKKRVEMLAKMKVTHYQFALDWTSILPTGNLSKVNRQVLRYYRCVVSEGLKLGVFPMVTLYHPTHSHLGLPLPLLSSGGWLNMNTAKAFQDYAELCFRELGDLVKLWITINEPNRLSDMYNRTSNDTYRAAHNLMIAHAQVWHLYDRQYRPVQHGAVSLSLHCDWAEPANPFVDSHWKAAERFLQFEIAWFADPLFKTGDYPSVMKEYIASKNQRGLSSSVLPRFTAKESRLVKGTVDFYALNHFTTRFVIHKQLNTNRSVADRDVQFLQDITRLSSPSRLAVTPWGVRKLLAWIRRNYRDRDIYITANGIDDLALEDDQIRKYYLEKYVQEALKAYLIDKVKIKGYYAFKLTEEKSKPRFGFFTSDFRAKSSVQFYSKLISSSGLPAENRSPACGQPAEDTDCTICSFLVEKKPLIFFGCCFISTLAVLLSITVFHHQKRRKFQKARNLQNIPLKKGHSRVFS", "assay": "FACS on transfected Expi293 cells, antibody 1 µg/ml, labelled anti-human Fc", "method": "as §1, §2"}, "[6]": {"biological_target": "T1, mouse-human KLB chimeric protein (mouse …)", "assay": "FACS on transfected Expi293 cells, antibody 1 µg/ml, labelled anti-human Fc", "method": "as §1, §2"}}, "note": "Values joined by “and” are separate entries in the source; they are usually repeats but may differ in a detail not shown here. Equal values may be shown once."}
{"binder": "B1", "values": [{"measurement": "HEK293 cynoKLB/R1c reporter assay EC50, Experiment - A", "setting": "[1]", "result": "0.108 nM and 0.178 nM"}, {"measurement": "HEK293 cynoKLB/R1c reporter assay EC50, Experiment - B", "setting": "[1]", "result": 0.227, "unit": "nM"}, {"measurement": "binding result", "setting": "[2]", "result": "no binding (tested: 1 µg/ml)"}, {"measurement": "EC50-adipocyte", "setting": "[3]", "result": 3.4, "unit": "nM"}, {"measurement": "EC50 reporter assay", "setting": "[3]", "result": "0.2 nM and 0.54 nM"}, {"measurement": "HEK293 huKLB/R1c reporter assay EC50, Experiment - A", "setting": "[4]", "result": 0.0453, "unit": "nM"}, {"measurement": "HEK293 huKLB/R1c reporter assay EC50, Experiment - B", "setting": "[4]", "result": 0.0279, "unit": "nM"}, {"measurement": "Mean Fluorescence intensity", "setting": "[5]", "result": 10.6, "unit": "MFI"}, {"measurement": "Mean Fluorescence intensity", "setting": "[6]", "result": 5.6, "unit": "MFI"}]}
